# Key:
# [1] = Pharmacokinetics of Conjugate 57 in patients; type: in vivo, human
# Protocol: (§1) In previous clincial studies, Conjugate 57 was administered via IV on an every 3 week cycle ([…]). The dose of Conjugate 57 may be 1.0 mg, 2.0 mg, 4.0 mg, 8 mg, 12 mg, 15 mg or MTD, which has been determined to be 18 mg. […] BSA (meters squared), as used herein, can be calculated as the following: the square root of patient height in centimeters times patient weight in kilograms divided by 3600. As shown in FIG. 1A and FIG. 1B, a trend was evident between dose normalized exposure (AUC0-8 and Cmax) vs BSA for Conjugate 57. […] The majority of toxicity observed was at dose levels greater than 8.8 mg/m^2. Based on these unexpected results, that starting dose of Conjuate 57 for patients was changed from 15 mg to 8.8 mg/m^2 or less than 8.8 mg/m^2. Patients received dose levels such as 8.8 mg/m^2, 8.75 mg/m^2, 8.6 mg/m^2, 8.4 mg/m^2, 8.3 mg/m^2, 7.9 mg/m^2, 7.5 mg/m^2, and 6.7 mg/m2.
# [2] = Buffer screening for solution stability of Conjugate 57; type: physicochemical; conditions: acetate buffer at pH range of 4.0 to 4.8, compared with citrate and phosphate buffers
# Source text: Conjugate 57 is a free flowing powder. Previusly studies have found the stability of Conjugate 57 is dependent on the pH of the solution.
# [3] = Clinical studies of Conjugate 57 given IV: dose level, benefit and toxicity; type: in vivo, human
# Protocol: as §1
# The risk of over exposure of high Cmax levels in smaller pateints (<1.6 m^2) was reduced. The risk of early discontinuation due to intolerability was reduced and the duration of theray was increased.
# [4] = human, in vivo, intravenous, in a patient
# [5] = patients, dose per body surface area
smiles,measurement,setting,value
COc1cc2cc(c1Cl)N(C)C(=O)C[C@H](OC(=O)[C@H](C)N(C)C(=O)CCSSC[C@H](NC(=O)[C@@H]1CSSC[C@H](NC(=O)[C@H](N)Cc3ccccc3)C(=O)N[C@@H](Cc3ccc(O)cc3)C(=O)N[C@H](Cc3c[nH]c4ccccc34)C(=O)N[C@@H](CCCCN)C(=O)N[C@@H]([C@@H](C)O)C(=O)N1)C(N)=O)[C@]1(C)O[C@H]1[C@H](C)[C@@H]1C[C@@](O)(NC(=O)O1)[C@H](OC)/C=C/C=C(\C)C2 [Conjugate 57],clearance,[1]; [4],318 mL/min
same,half-life,[1]; [4],~1.8 h
same,exposure (dose normalized AUC0-8 and Cmax) vs body surface area,"[1]; patients, FIG. 1A and FIG. 1B",correlateds with body surface area (BSA)
same,stability in buffered solution,[2],most stability
same,MTD,"[3]; IV, every 3 week cycle, flat dose, previous clinical studies",18 mg
same,effect on efficacy of changing from flat doses to doses based on body surface area,[3]; patients,no negative effect on efficacy
same,dose levels at which maximum benefit was observed,[3]; [5],≤ 8.8 mg/m^2
same,dose levels at which the majority of toxicity was observed,[3]; [5],greater than 8.8 mg/m^2

# Reference: US20220257766A1, “SSTR-TARGETED CONJUGATES AND FORMULATIONS THEREOF” (TVA (ABC), LLC, priority 2019, published 2022)
